Measured values taken from US6586197B1, “Methods and materials for identifying novel pesticide agents” (priority 1999, dated 2003).

Experiments:
expressed M sexta APN1a = test: Aminopeptidase N activity assay (L-leucine-p-nitroanilide), homogenate of pHSP120-transfected Sf21 cells; type: biochemical, Manduca sexta; conditions: homogenate 50 μg of proteins, pHSP120-transfected Sf21 cells (FIG. 9, column B)
Protocol: (§1) Sf21 cells transfected with pHSP120 or pHSP-HR5 were collected and washed two times with PBS. The cells were suspended in 2 ml PBS and then homogenized with Potter-Helvehjem homogenizer. The cell homogenate was centrifuged at 27,000×g for 15 min at 4° C. The pellet was re-suspended in 2 ml of 10 mM Tris-HCl, 150 mM NaCl, pH 7.4. APN activity was assayed with L-leucine-p-nitroanilide as substrate as described previously (4). Briefly, the APN substrate (50 μl 6.8 mg/ml in methanol) was mixed with 1.4 ml of substrate buffer (10 mM Tris-HCl, 150 mM NaCl pH 7.4), and then the homogenate (50 μg of proteins) was added. The sample solution was incubated at 37° C. for 2 h. The level of APN activity was then determined by spectrophotometric measurement of free p-nitroanilide at […].
(§2) Sf21 cells transfected with pHSP120 or pHSP-HR5 were collected and homogenized. The homogenate (50 μg of proteins) was tested for APN activity. A high level of APN activity was present in the cells transfected pHSP120 compared with that in the cells transfected with pHSP-HR5 (FIG. 9, columns A and C).

[1] = tested on: enzymatic activity of Sf21 cells transfected with pHSP-HR5; test: Aminopeptidase N activity assay (L-leucine-p-nitroanilide), homogenate of pHSP-HR5-transfected Sf21 cells; type: biochemical, Spodoptera frugiperda; conditions: homogenate 50 μg of proteins, pHSP-HR5-transfected Sf21 cells (FIG. 9, column D)
Protocol: as §1, §2

M. sexta 120 kDa APN = molecular target: T1, M. sexta 120 kDa APN (Manduca sexta, UniProt Q11001); conditions: previous studies (Knight 1994; Sangadala 1994; Masson 1995; Lu and Adang 1996); cited from earlier work
T1 sequence (Q11001 36-968): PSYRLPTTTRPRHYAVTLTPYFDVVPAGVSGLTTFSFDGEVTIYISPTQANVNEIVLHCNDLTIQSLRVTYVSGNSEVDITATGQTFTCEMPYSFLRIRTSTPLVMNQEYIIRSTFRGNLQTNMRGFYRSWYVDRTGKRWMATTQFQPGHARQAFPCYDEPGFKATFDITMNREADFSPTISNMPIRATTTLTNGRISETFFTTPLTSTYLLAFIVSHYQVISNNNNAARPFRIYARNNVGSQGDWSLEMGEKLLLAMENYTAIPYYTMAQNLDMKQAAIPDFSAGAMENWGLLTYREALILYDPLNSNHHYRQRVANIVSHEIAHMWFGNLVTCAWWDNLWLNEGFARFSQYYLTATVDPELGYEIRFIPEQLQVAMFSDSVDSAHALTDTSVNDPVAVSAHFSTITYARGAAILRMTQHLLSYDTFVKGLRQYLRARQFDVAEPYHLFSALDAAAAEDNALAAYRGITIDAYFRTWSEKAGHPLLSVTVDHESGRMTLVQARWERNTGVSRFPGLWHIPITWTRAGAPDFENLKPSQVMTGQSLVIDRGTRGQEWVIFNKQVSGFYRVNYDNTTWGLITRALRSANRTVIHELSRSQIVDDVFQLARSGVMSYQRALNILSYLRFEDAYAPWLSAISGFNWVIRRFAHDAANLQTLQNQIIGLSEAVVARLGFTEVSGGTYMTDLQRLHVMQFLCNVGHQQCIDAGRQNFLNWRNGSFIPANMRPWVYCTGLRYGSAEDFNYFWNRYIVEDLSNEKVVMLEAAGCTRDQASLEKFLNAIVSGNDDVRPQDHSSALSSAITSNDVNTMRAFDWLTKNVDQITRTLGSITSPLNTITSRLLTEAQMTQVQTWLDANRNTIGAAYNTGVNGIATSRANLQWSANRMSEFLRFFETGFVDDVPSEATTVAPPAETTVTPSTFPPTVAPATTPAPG

[2] = molecular target: T2, purified 115 kDa APN from Manduca sexta (Manduca sexta, UniProt Q11001); conditions: Masson et al., 1995; cited from earlier work
T2 sequence (Q11001 36-968 limits assumed): T1 sequence (Q11001 36-968)

[3] = tested on: Sf21 cells transfected with pHSP-HR5; test: Toxicity assay (Trypan blue cell mortality), control-vector Sf21 cells; conditions: 2 h
Protocol: The pHSP120 plasmid DNA was isolated and purified using a Plasmid Maxi Kit (Qiagen, Valencia, Calif.). Sf21 (IPLB-Sf21) cells (Vaughn et al., 1977) were plated at 1.8×10^6 cells per plate (60 mm diameter) prior to transfection with pHSP120 DNA. Plasmid DNA (10 μg) was mixed with 5 μl of Lipofectin reagent (Gibco BRL, Gaithersburg, Md.) and combined with 1 ml of TC-100 medium (Gibco BRL, Gaithersburg, Md.). The mixture was incubated at room temperature for 15 min. Following 3 washes with TC-100 medium, the DNA/Lipofectin mixture was added to the cells, and then the cells were incubated at room temperature for 4 h on a rocker. After removal of DNA/Lipofectin mixture, TC-100 with 10% fetal bovine serum (4 ml) was added to the plates and the cells were incubated at 27° C. overnight. […] After incubation at 27° C. for 24 h, the cells were collected and analyzed using immunofluorescence localization and Western blotting.
Sf21 cells (1.8×10^6) were grown and heat-shocked as described above. […] Cell mortality was determined by trypan blue staining as described by Thomas and Ellar (1983).
(§3) Thetoxicity of three Cry1toxins to Sf21 cells expressing M sexta 120 APN was determined. A single concentration of Cry1toxins (40 μg/ml) was used and the cell mortality was measured by Trypan blue staining (Thomas and Ellar 1983).

[4] = tested on: Sf21 cells transfected with pHSP120; test: Toxicity assay (Trypan blue cell mortality), Sf21 cells expressing M. sexta 120 kDa APN; conditions: 2 h
Protocol: The pHSP120 plasmid DNA was isolated and purified using a Plasmid Maxi Kit (Qiagen, Valencia, Calif.). Sf21 (IPLB-Sf21) cells (Vaughn et al., 1977) were plated at 1.8×10^6 cells per plate (60 mm diameter) prior to transfection with pHSP120 DNA. Plasmid DNA (10 μg) was mixed with 5 μl of Lipofectin reagent (Gibco BRL, Gaithersburg, Md.) and combined with 1 ml of TC-100 medium (Gibco BRL, Gaithersburg, Md.). The mixture was incubated at room temperature for 15 min. Following 3 washes with TC-100 medium, the DNA/Lipofectin mixture was added to the cells, and then the cells were incubated at room temperature for 4 h on a rocker. After removal of DNA/Lipofectin mixture, TC-100 with 10% fetal bovine serum (4 ml) was added to the plates and the cells were incubated at 27° C. overnight. Expression of 120 kDa APN in Sf21 cells was induced by heat-shocking cells at 42° C. for 30 min the following day. After incubation at 27° C. for 24 h, the cells were collected and analyzed using immunofluorescence localization and Western blotting.
Sf21 cells (1.8×10^6) were grown and heat-shocked as described above. […] The freshly prepared toxin solution (1 ml) was added to each Sf21 cell plate and incubated at room temperature for 2 h. Cell mortality was determined by trypan blue staining as described by Thomas and Ellar (1983).
as §3

[5] = tested on: expressed 120 kDa APN from Sf21 cells; test: Toxin affinity chromatography and anti-APN immunoblot, Sf21 cells; type: binding, Manduca sexta; conditions: CHAPS-solubilized Sf21 cells, anti-APN immunoblot (FIG. 13)
Protocol: Affinity purification method of M. sexta 120 kDa APN from Sf21 cells or M. sexta midgut BBMV was described in Luo et al (1996). Briefly, Cry1Ac, Cry1Ba and Cry3a toxins (200 μg) were coupled to 400 μl of cyanogen bromide-activated Sepharose 4B in 20 mM Na2CO3, pH 9.6. M sexta BBMV (1 ml, 3.4 mg/ml proteins) or Sf21 cells (10^7 cells) were solubilized with 2% 3-[(3-cholamidopropyl) dimethylammoniol]-1-propane-sulphonate (CHAPS) in buffer A (50 mM Na2CO3, pH 9.6, 200 mM NaCl, 5 mM EGTA, 0.1% CHAPS). Insoluble material was removed by centrifugation at 27,000×g for 30 min at 4° C. CHAPS-solubilized BBMV (1 ml) or Sf21 cells (2 ml) were then added to the toxin-coupled Sepharose beads equilibrated with Buffer A. The mixture was incubated at 4° C. overnight. After washing with 100 ml of Buffer A, the binding protein-toxin complex was dissociated from the beads by heating in SDS-PAGE sample buffer at 100° C. for 5 min. The samples were separated by 8% SDS-PAGE, and then electrophoretically transferred to nitrocellulose membrane (Millipore Corp., Bedford, Mass.) in transfer buffer (Towbin et al., 1979) at 4° C. overnight. The membrane was blocked with 5% non-fat dry milk in PBST at room temperature for 1 h, and then probed with anti-APN antibody (0.5 μg/ml) in PBST containing 0.1% non-fat dry milk for 2 h. […]

[6] = tested on: expressed 120 kDa APN on Sf21 cells transfected with pHSP120; test: Immunofluorescence binding of rhodamine-labeled toxins to Sf21 cells (confocal microscopy), pHSP120; set-up: species or system Manduca sexta; conditions: toxin 1 μg/ml, fixed Sf21 cells transfected with pHSP120
Protocol: Growth of B. thuringiensis strains, trypsin activation, and fast-performance liquid chromatography (Pharmacia) purification of Cry1Ac, […] and Cry3a toxins were done as previously described (Garczynski et al 1991; Lu and Adang 1996). […] The purified Cry1Ac and Cry1Ba (200 μg) were labeled with 5-(and-6)-carboxytetramethylrhodamine, succinimidyl ester [5(6)-TAMRA SE] (Molecular Probe, Eugene, Oreg.) according to the manufacturer's instructions. Briefly, 5(6)-TAMRA (5 mg) were dissolved in 0.5 ml of Dimethylformamide (DMF) immediately before starting the labeling. The dye solution (100 μl) was slowly added into 500 μl of toxin sample (200 μg toxins) and incubated for 1 h at room temperature. The reaction was stopped by adding 0.1 ml of 1.5 M hydroxylamine, pH 8.5, and then the mixture was incubated. for 1h at room temperature. […]
Sf21 cells were plated onto a microscope cover glass (18×18 mm) in a tissue culture dish (60×15 mm diameter), and then transfected and heat-shocked as described above. […] Immunostained cells were observed using fluorescence microscopy or fluorescence confocal microscopy (Center for Advanced Ultrastructural Research, University of Georgia).
Since the expressed 120 kDa APN located on Sf21 cell surfaces, we examined the binding of Cry1toxins to Sf21 cells using double immunofluorescence staining. […] And then cells were viewed by fluorescence confocal microscopy.

## CC(C)C[C@@H](N)[C@H](O)C(=O)N[C@H](C(=O)N[C@H](C(=O)N[C@@H](CC(=O)O)C(=O)O)C(C)C)C(C)C [Amastatin]
Expressed M sexta APN1a
  Effect on APN activity: greatly reduced
[1]
  Effect on APN activity: did not show significantly impact

## Cry1Aa: Bacillus thuringiensis Cry1 δ-endotoxin (literature)
M. sexta 120 kDa APN
  Specific binding to M. sexta 120 kDa APN: bound specifically
[2]
  Binding to purified 115 kDa APN: bind

## Cry1Ab: Bacillus thuringiensis Cry1 δ-endotoxin (literature)
M. sexta 120 kDa APN
  Specific binding to M. sexta 120 kDa APN: bound specifically
[2]
  Binding to purified 115 kDa APN: bind

## Cry1Ac: trypsin-activated, purified B. thuringiensis Cry1Ac toxin
M. sexta 120 kDa APN
  Specific binding to M. sexta 120 kDa APN: bound specifically
[3]; 40 μg/ml toxin in insect PBS, Trypan blue (0.1%) staining, means of three assays (±standard error), control vector
  Mortality (%) (±SE), Cells transfected with pHSP-HR5: 20.6 (±0.5) %
[3]; 40 μg/ml toxin, Sf21 cells transfected with pHSP-HR5
  Toxicity in words: low toxicity
[4]; 40 μg/ml toxin in insect PBS, Trypan blue (0.1%) staining, means of three assays (±standard error)
  Mortality (%) (±SE), Cells transfected with pHSP 120: 20.0 (±0.4) %
[4]; 40 μg/ml toxin
  Difference in mortality between pHSP120- and pHSP-HR5-transfected Sf21 cells: no significant difference
[4]; 40 μg/ml toxin, Sf21 cells transfected with pHSP120
  Toxicity in words: low toxicity
[2]
  Binding to purified 115 kDa APN: bind
[5]
  Binding of APN to toxin affinity column: did not bind
[6]
  Binding of rhodamine-labeled toxin (immunofluorescence): does not bind
